Results taken from patent US12655409B2, “Recombinant lysin and its use in the treatment of Gram-negative bacterial infections” (TELUM THERAPEUTICS S.L., priority 2020, dated 2026).

Key:
E. coli ATCC 25922 = assay: MIC by microdilution in TP-Na 10 mM pH 6.15; type: cell-based, Escherichia coli
Procedure: The IKB206tags endolysin was purified from the Escherichia coli BL21 (DE3) strain, as previously described.
Checkerboard tests were assessed by the microdilution method, as previously described (Moody JA 1992, Moellering E G., Jr.1996). […] Each microtiter well contained 100 μl of a E. coli inoculum of 1×10^5 CFUs mL^−1, with or without the corresponding compounds, in a final volume of 200 μl of Sodium phosphate (TP-Na) buffer 10 mM pH 6.15 per well and the plates were incubated at 37° C. for 17 h.

[1] = system: E. coli strain ATCC 25922; assay: Enzyme bactericidal activity assay on E. coli ATCC 25922; type: cell-based, Escherichia coli
Procedure: (§1) Briefly, the different bacterial cultures were incubated in the specific media (Table 1) at 37° C. or 30° C., according to the strain, until reaching an A600 of 0.3. The cells were then deposited by centrifugation (4500×g, 10 min) and washed twice with the corresponding buffer, with the A600 being adjusted to ≈0.3. A volume of 160 μl of the bacterial suspension was transferred to sterile 96-well plates to which there were added 40 μl of the enzyme under study in a range of doses comprised between 1 and 60 μg mL^−1. The control wells were treated with the same volume of buffer […]. The plates were incubated at 37° C. Samples were taken at different times, serial dilutions performed, and they were seeded in plates containing the specific medium to determine viable bacteria. The experiments were repeated at least 3 times. The bactericidal effect of IKB206 (and its variants) was quantified as the number of logs reduced in the presence of treatment, after a given incubation time (log10 (N0/Ni), where N0=number of CFU mL^−1 before treatment, and Ni=number of CFU mL^−1 after the corresponding incubation time in the presence of each treatment).

[2] = system: M. lysodeikticus lyophilized cells; assay: Enzyme specific activity assay (turbidometric, A450 decrease); type: biochemical, Micrococcus lysodeikticus; conditions: 37° C., 10 mM Na2HPO4/NaH2PO4 pH 6
Procedure: The specific activity (U mG-1) was determined using a suspension of 0.6 mg mL^−1 of M. lysodeikticus lyophilized cells as substrate resuspended in cold buffer of the enzyme (10 mM Na2HPO4/NaH2PO4, PH 6 for IKB206tags and 50 mM K2HPO4/KH2PO4, pH 6.2 for egg white lysozyme) and incubating this suspension at different concentrations of the enzyme. Egg white lysozyme (Fisher BioReagents™ Lysozyme) was used as a control. Specifically, 100 μL of the M. lysodeikticus suspension were plated, in triplicate, into a multi-well plate and 100 μL of the different enzyme concentrations were added to the corresponding well. The plate was incubated at the appropriate temperature into a thermostated spectrophotometer (37° C. for IKB206tags and 25° C. for egg white lysozyme) and the A450 decrease was monitored over 10 min.
Unit definition: 1 unit is that amount of enzyme needed to catalyze a decrease in absorbance at 450 nm of 0.001/min at the appropriate temperature and pH of each lysozyme in a 1 cm cuvette due to lysis using a ˜0.4-0.6 mg/mL suspension of M. lysodeikticus.

[3] = system: E. coli strain DSM 17076 with serotype O157: H7; assay: Enzyme bactericidal activity assay on E. coli serotype O157:H7; type: cell-based, Escherichia coli; conditions: 15 μg mL^−1
Procedure: as §1

Molecule: C[C@@H](O)[C@H]1C(=O)N2C(C(=O)O)=C(SCCN=CN)C[C@H]12 [Imepenem]
- MIC (E. coli ATCC 25922): 2.34 µg/mL

Molecule: C[C@@H](O)[C@H]1C(=O)N2C(C(=O)O)=C(S[C@@H]3CN[C@H](C(=O)N(C)C)C3)[C@H](C)[C@H]12 [Meropenem]
- MIC (E. coli ATCC 25922): 0.59 µg/mL

B1: IKB206tags: IKB206 with S-tag at the N-terminal end, 6-His tag at the C-terminal end and thrombin cleavage sites; 329 amino acids (protein)
chain: MKETAAAKFERQHMDSPDLGTLVPRGSMAISDPMKTSPNGIAVTKYFESFEARAYPDPATGGKPYTIGFGTTVYPSGAPVRLGDVCTKEQAEKYLQNDLAKFEKIVSDAVRVPLNQGQFDALVSFTYNLGPANLRSSTLLKKLNAGDYAGAAKEFPRWNRANGKVMKGLTRRRAAEQCLFEGMGGASAIERGVAAANSGTPKNVSRGTSSTKTTPKYKVKNGDNLTKIAKKHNTTVATLLKLNPGIKDPNMIRVGQTLNVTGSGGKTHKVKSGDTLSKIAVDNKTTVSKLMNLNPEITNPNHIKVGQTIRLSLGTLVPRGSLEHHHHHH
modifications: S-tag, 6-His tag, thrombin sites; chimeric endolysin (IKB206tags)
notes: IKB206 with S-tag at the N-terminal end, 6-His tag at the C-terminal end and thrombin cleavage sites; 329 amino acids
- reduction in CFU mL^−1 ([1]; 5 μg mL^−1, 15 min of incubation): significant
- incubation time for killing the entire culture ([1]; 15 μg mL^−1): 30 min
- reduction of the number of CFU mL^−1 ([1]; 15 μg mL^−1, 5 minutes of incubation): more than 2 logs
- incubation time for killing the entire culture ([1]; 60 μg mL^−1): 15 min
- specific activity [2]: around 8100 U mg^−1
- bactericidal activity on serotype O157:H7 [3]: significantly reduced the number of E. coli strain DSM 17076 cells, although it was not capable of killing the entire culture

B2: IKB206AD8: putative endolysin from phage Arya alone, catalytic domain of IKB206 without the D8 domain (protein)
chain: MKTSPNGIAVTKYFESFEARAYPDPATGGKPYTIGFGTTVYPSGAPVRLGDVCTKEQAEKYLQNDLAKFEKIVSDAVRVPLNQGQFDALVSFTYNLGPANLRSSTLLKKLNAGDYAGAAKEFPRWNRANGKVMKGLTRRRAAEQCLFEGMGGASAIERGVAAA
modifications: Enterobacter phage Arya; (1)..(163) Endolysin
- bactericidal activity in the absence of the D8 domain [1]: presented bactericidal activity
- incubation times to obtain the same levels of bactericidal activity as IKB206 [1]: longer incubation times were needed
- reduction in CFU/mL ([1]; 15 μg mL^−1, 60 minutes): about 3 log
- reduction in CFU/mL ([1]; 15 μg mL^−1, 180 minutes): about 5 log
